Key:
[1] = target: T1, full-length synthetic Tat protein (aa 1-72)
T1 chain: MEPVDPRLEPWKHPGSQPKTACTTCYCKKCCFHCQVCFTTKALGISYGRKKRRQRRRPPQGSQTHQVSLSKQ

[2] = target: CDK9 (P-TEFb component), P50750
[3] = target: histone H3 (histones isolated from HEK293T cells)
[4] = target: cyclin T1 (P-TEFb component), O60563
[5] = target: histone H1 (purified human histones isolated from HEK293T cells), P07305
Chain of histone H1 (purified human histones isolated from HEK293T cells), P07305 (P07305 whole entry, looked up): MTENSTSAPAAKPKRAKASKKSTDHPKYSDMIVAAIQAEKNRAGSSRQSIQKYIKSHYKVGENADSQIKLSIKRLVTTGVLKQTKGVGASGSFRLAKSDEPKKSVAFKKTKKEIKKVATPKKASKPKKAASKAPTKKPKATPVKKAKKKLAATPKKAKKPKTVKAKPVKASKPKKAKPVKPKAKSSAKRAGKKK

Chain of NF-kB p65 (RelA), Q04206 (Q04206 whole entry): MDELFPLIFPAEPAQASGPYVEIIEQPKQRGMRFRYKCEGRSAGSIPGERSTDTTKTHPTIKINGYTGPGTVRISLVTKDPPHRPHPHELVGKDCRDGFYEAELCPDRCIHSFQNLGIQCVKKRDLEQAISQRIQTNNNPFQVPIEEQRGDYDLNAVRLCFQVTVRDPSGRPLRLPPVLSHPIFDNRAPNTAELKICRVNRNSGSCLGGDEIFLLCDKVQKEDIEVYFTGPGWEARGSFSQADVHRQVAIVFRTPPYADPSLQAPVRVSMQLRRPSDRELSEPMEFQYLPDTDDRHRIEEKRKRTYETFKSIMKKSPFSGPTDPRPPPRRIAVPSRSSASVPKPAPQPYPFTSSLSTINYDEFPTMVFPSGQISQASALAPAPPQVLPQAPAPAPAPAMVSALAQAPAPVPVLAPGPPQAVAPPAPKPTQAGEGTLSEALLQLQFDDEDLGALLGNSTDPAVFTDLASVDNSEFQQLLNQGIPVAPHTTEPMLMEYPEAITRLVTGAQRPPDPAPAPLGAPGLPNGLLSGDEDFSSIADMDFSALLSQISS
Chain of cyclin T1 (P-TEFb component), O60563 (O60563 whole entry): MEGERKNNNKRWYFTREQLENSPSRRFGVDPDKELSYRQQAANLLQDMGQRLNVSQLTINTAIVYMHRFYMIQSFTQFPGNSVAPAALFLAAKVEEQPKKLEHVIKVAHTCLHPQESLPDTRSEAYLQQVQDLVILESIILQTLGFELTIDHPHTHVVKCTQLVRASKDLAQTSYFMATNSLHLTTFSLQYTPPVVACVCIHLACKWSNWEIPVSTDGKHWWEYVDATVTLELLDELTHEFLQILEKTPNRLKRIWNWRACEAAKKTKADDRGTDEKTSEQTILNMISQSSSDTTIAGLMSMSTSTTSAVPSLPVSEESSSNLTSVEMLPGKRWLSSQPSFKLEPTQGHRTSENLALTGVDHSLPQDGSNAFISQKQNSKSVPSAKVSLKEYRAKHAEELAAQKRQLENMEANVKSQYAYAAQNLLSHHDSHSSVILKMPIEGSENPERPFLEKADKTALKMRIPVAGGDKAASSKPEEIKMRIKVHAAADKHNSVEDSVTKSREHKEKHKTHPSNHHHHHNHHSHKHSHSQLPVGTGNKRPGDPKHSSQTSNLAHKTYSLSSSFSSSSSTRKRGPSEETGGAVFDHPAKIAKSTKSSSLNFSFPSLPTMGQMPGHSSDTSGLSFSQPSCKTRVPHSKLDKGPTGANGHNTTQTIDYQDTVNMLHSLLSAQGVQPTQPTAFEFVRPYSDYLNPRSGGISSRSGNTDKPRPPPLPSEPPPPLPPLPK
Chain of CDK9 (P-TEFb component), P50750 (P50750 whole entry): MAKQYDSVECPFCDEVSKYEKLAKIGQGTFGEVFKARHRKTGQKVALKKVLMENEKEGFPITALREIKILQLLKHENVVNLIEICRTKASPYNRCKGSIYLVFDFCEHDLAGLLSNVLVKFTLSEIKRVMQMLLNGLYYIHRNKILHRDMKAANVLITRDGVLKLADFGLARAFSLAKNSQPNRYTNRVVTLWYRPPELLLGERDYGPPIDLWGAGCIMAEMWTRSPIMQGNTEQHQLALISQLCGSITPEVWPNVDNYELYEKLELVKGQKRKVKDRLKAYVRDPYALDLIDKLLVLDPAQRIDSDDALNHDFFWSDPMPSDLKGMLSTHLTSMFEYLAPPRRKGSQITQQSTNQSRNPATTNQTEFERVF
Chain of Sp1, P08047 (P08047 whole entry): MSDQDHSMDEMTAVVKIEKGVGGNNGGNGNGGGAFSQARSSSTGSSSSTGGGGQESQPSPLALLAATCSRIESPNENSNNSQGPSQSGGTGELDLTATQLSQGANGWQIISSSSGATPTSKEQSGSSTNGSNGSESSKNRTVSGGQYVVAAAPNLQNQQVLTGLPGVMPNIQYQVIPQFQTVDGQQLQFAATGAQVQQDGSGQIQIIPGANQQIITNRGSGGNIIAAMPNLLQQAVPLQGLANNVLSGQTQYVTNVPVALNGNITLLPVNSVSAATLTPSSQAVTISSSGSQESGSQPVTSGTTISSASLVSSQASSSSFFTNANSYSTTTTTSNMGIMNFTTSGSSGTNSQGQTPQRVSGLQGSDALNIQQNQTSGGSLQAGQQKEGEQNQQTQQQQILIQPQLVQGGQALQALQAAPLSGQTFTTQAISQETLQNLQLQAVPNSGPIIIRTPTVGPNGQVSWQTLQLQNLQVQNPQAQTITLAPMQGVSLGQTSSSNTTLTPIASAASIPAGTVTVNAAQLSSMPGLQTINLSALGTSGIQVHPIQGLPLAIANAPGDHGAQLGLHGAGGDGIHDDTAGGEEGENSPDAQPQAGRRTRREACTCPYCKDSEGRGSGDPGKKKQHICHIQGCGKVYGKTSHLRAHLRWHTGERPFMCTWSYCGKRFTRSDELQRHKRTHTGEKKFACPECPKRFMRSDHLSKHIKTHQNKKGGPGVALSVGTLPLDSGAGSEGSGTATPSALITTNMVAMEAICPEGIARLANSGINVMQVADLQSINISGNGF

B1: recombinant full-length SMYD5 (SET and MYND domain-containing protein 5) (protein)
chain: MAASMCDVFSFCVGVAGRARVSVEVRFVSSAKGKGLFATQLIRKGETIFVERPLVAAQFLWNALYRYRACDHCLRALEKAEENAQRLTGKPGQVLPHPELCTVRKDLHQNCPHCQVMYCSAECRLAATEQYHQVLCPGPSQDDPLHPLNKLQEAWRSIHYPPETASIMLMARMVATVKQAKDKDRWIRLFSQFCNKTANEEEEIVHKLLGDKFKGQLELLRRLFTEALYEEAVSQWFTPDGFRSLFALVGTNGQGIGTSSLSQWVHACDTLELKPQDREQLDAFIDQLYKDIEAATGEFLNCEGSGLFVLQSCCNHSCVPNAETSFPENNFLLHVTALEDIKPGEEICISYLDCCQRERSRHSRHKILRENYLFVCSCPKCLAEADEPNVTSEEEEEEEEEEEGEPEDAELGDEMTDV
in vitro methylation (3H-SAM, autoradiography) (Sp1, P08047): no methylation was detected for Re1A, Sp1, cyclin T1 and CDK9 | LC-MS/MS of in vitro methylation products (non-radiolabeled SAM) [1]: This analysis identified a single site, trimethylation of K41, identified in two distinct peptides (not shown). No mono or dimethylation at Tat K41 was observed. | in vitro methylation (3H-SAM, autoradiography) [1]: histones H3 and H1 were weakly and Tat strongly methylated by SMYD5 | in vitro methylation (3H-SAM, autoradiography) [2]: no methylation was detected for Re1A, Sp1, cyclin T1 and CDK9 | in vitro methylation (3H-SAM, autoradiography) [3]: histones H3 and H1 were weakly and Tat strongly methylated by SMYD5 | in vitro methylation (3H-SAM, autoradiography) [4]: no methylation was detected for Re1A, Sp1, cyclin T1 and CDK9 | in vitro methylation (3H-SAM, autoradiography) [5]: histones H3 and H1 were weakly and Tat strongly methylated by SMYD5 | in vitro methylation (3H-SAM, autoradiography) (NF-kB p65 (RelA), Q04206): no methylation was detected for Re1A, Sp1, cyclin T1 and CDK9
